Measurements published in paper PMC5159498 (2016).

B1: CDC42 (aa 1-178) (domain or fragment)
chain: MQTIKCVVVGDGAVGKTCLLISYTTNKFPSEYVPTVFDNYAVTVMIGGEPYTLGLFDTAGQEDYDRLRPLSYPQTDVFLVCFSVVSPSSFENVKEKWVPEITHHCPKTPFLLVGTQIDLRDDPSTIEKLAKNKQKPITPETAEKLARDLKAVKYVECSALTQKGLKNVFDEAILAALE
B2: IQGAP1 GRD1-RGCT S1443E (aa 877-1558) (domain or fragment)
chain: DQSDQDFQEELDLMKMREEVITLIRSNQQLENDLNLMDIKIGLLVKNKITLQDVVSHSKKLTKKNKEQLSDMMMINKQKGGLKALSKEKREKLEAYQHLFYLLQTNPTYLAKLIFQMPQNKSTKFMDSVIFTLYNYASNQREEYLLLRLFKTALQEEIKSKVDQIQEIVTGNPTVIKMVVSFNRGARGQNALRQILAPVVKEIMDDKSLNIKTDPVDIYKSWVNQMESQTGEASKLPYDVTPEQALAHEEVKTRLDSSIRNMRAVTDKFLSAIVSSVDKIPYGMRFIAKVLKDSLHEKFPDAGEDELLKIIGNLLYYRYMNPAIVAPDAFDIIDLSAGGQLTTDQRRNLGSIAKMLQHAASNKMFLGDNAHLSIINEYLSQSYQKFRRFFQTACDVPELQDKFNVDEYSDLVTLTKPVIYISIGEIINTHTLLLDHQDAIAPEHNDPIHELLDDLGEVPTIESLIGESSGNLNDPNKEALAKTEVSLTLTNKFDVPGDENAEMDARTILLNTKRLIVDVIRFQPGETLTEILETPATSEQEAEHQRAMQRRAIRDAKTPDKMKKSKEVKEDSNLTLQEKKEKIQTGLKKLTELGTVDPKNKYQELINDIARDIRNQRRYRQRRKAELVKLQQTYAALNSKATFYGEQVDYYKSYIKTCLDNLASKGKVSKKPREMKGKKSKK
B3: IQGAP1 GRD1-RGCT S1441E (aa 877-1558) (domain or fragment)
chain: DQSDQDFQEELDLMKMREEVITLIRSNQQLENDLNLMDIKIGLLVKNKITLQDVVSHSKKLTKKNKEQLSDMMMINKQKGGLKALSKEKREKLEAYQHLFYLLQTNPTYLAKLIFQMPQNKSTKFMDSVIFTLYNYASNQREEYLLLRLFKTALQEEIKSKVDQIQEIVTGNPTVIKMVVSFNRGARGQNALRQILAPVVKEIMDDKSLNIKTDPVDIYKSWVNQMESQTGEASKLPYDVTPEQALAHEEVKTRLDSSIRNMRAVTDKFLSAIVSSVDKIPYGMRFIAKVLKDSLHEKFPDAGEDELLKIIGNLLYYRYMNPAIVAPDAFDIIDLSAGGQLTTDQRRNLGSIAKMLQHAASNKMFLGDNAHLSIINEYLSQSYQKFRRFFQTACDVPELQDKFNVDEYSDLVTLTKPVIYISIGEIINTHTLLLDHQDAIAPEHNDPIHELLDDLGEVPTIESLIGESSGNLNDPNKEALAKTEVSLTLTNKFDVPGDENAEMDARTILLNTKRLIVDVIRFQPGETLTEILETPATSEQEAEHQRAMQRRAIRDAKTPDKMKKEKSVKEDSNLTLQEKKEKIQTGLKKLTELGTVDPKNKYQELINDIARDIRNQRRYRQRRKAELVKLQQTYAALNSKATFYGEQVDYYKSYIKTCLDNLASKGKVSKKPREMKGKKSKK

Tests used:
[1] = target: B2; assay: mGppNHp-bound CDC42
[2] = target: B3; assay: mGppNHp-bound CDC42
CDC42 (aa 1-178) = target: B1; assay: mGppNHp-bound CDC42
Sequence of CDC42 (aa 1-178) (P60953 1-178): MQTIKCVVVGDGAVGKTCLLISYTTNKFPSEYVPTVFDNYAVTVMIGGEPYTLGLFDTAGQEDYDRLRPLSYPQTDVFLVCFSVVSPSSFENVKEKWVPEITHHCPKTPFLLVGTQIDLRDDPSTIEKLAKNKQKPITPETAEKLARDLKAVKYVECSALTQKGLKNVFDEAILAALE

RAC1 (aa 1-179) = RAC1 (aa 1-179) (human, UniProt P63000 1-179); assay: mGppNHp-bound RAC1
CDC42 Q61L = CDC42 Q61L (human, UniProt P60953 1-178, Q61L); assay: tGppNHp-bound CDC42 Q61L
Sequence of CDC42 Q61L (P60953 1-178 Q61L): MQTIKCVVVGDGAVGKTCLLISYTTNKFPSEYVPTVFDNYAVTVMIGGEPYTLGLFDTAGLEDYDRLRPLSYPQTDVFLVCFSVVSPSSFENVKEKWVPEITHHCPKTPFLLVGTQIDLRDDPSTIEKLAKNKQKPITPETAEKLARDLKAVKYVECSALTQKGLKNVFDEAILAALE

koff [1] [s⁻¹] | koff [2] [s⁻¹] | koff (CDC42 (aa 1-178)) [s⁻¹] | koff (RAC1 (aa 1-179)) [s⁻¹] | koff (CDC42 Q61L) [s⁻¹] | Binder
2.32 | 1.83 |  |  |  | B1
 |  | 2.23 | 2.78 |  | IQGAP1 GRD1-RGCT wild type (aa 877-1558) (domain or fragment) DQSDQDFQEELDLMKMREEVITLIRSNQQLENDLNLMDIKIGLLVKNKITLQDVVSHSKKLTKKNKEQLSDMMMINKQKGGLKALSKEKREKLEAYQHLFYLLQTNPTYLAKLIFQMPQNKSTKFMDSVIFTLYNYASNQREEYLLLRLFKTALQEEIKSKVDQIQEIVTGNPTVIKMVVSFNRGARGQNALRQILAPVVKEIMDDKSLNIKTDPVDIYKSWVNQMESQTGEASKLPYDVTPEQALAHEEVKTRLDSSIRNMRAVTDKFLSAIVSSVDKIPYGMRFIAKVLKDSLHEKFPDAGEDELLKIIGNLLYYRYMNPAIVAPDAFDIIDLSAGGQLTTDQRRNLGSIAKMLQHAASNKMFLGDNAHLSIINEYLSQSYQKFRRFFQTACDVPELQDKFNVDEYSDLVTLTKPVIYISIGEIINTHTLLLDHQDAIAPEHNDPIHELLDDLGEVPTIESLIGESSGNLNDPNKEALAKTEVSLTLTNKFDVPGDENAEMDARTILLNTKRLIVDVIRFQPGETLTEILETPATSEQEAEHQRAMQRRAIRDAKTPDKMKKSKSVKEDSNLTLQEKKEKIQTGLKKLTELGTVDPKNKYQELINDIARDIRNQRRYRQRRKAELVKLQQTYAALNSKATFYGEQVDYYKSYIKTCLDNLASKGKVSKKPREMKGKKSKK
 |  |  | 2.82 |  | B2
 |  |  | 2.71 |  | B3
 |  | 0.39 | 0.66 | 0.073 | IQGAP1 GRD1-CT (aa 863-1657) (domain or fragment) DPPMVVVRKFVHLLDQSDQDFQEELDLMKMREEVITLIRSNQQLENDLNLMDIKIGLLVKNKITLQDVVSHSKKLTKKNKEQLSDMMMINKQKGGLKALSKEKREKLEAYQHLFYLLQTNPTYLAKLIFQMPQNKSTKFMDSVIFTLYNYASNQREEYLLLRLFKTALQEEIKSKVDQIQEIVTGNPTVIKMVVSFNRGARGQNALRQILAPVVKEIMDDKSLNIKTDPVDIYKSWVNQMESQTGEASKLPYDVTPEQALAHEEVKTRLDSSIRNMRAVTDKFLSAIVSSVDKIPYGMRFIAKVLKDSLHEKFPDAGEDELLKIIGNLLYYRYMNPAIVAPDAFDIIDLSAGGQLTTDQRRNLGSIAKMLQHAASNKMFLGDNAHLSIINEYLSQSYQKFRRFFQTACDVPELQDKFNVDEYSDLVTLTKPVIYISIGEIINTHTLLLDHQDAIAPEHNDPIHELLDDLGEVPTIESLIGESSGNLNDPNKEALAKTEVSLTLTNKFDVPGDENAEMDARTILLNTKRLIVDVIRFQPGETLTEILETPATSEQEAEHQRAMQRRAIRDAKTPDKMKKSKSVKEDSNLTLQEKKEKIQTGLKKLTELGTVDPKNKYQELINDIARDIRNQRRYRQRRKAELVKLQQTYAALNSKATFYGEQVDYYKSYIKTCLDNLASKGKVSKKPREMKGKKSKKISLKYTAARLHEKGVLLEIEDLQVNQFKNVIFEISPTEEVGDFEVKAKFMGVQMETFMLHYQDLLQLQYEGVAVMKLFDRAKVNVNLLIFLLNKKFYGK
